Values belong to the substance of their own block, whether it stands above or below them.
How the values were obtained:
[1] = target: Fc-tagged human IL-2 receptor alpha subunit extracellular domain (hIL-2 Ra-Fc) (human) (UniProt P01589)
[2] = target: Fc-tagged human IL-2 receptor beta subunit extracellular domain (hIL-2 Rb-Fc) (human) (UniProt P14784)
[3] = target: Fc-tagged human IL-2 receptor subunit alpha, extracellular domain (hIL-2 Ra-Fc) (human) (UniProt P01589)

Chain of UniProt P14784 (P14784 27-240): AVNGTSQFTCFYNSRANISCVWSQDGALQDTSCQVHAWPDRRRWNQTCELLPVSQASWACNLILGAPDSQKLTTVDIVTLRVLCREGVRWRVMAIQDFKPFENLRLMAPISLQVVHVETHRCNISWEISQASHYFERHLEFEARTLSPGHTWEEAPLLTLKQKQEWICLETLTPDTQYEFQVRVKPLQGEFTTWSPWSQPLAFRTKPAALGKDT

- Supplementary Table 1: αβγ EC50 (nM), DiscoverX PathHunter IL-2 receptor αβγ assay; row K43 [1]: 0.13 nM
- Supplementary Table 1: βγ EC50 (nM), DiscoverX PathHunter IL-2 receptor βγ assay; row K43 [2]: 9.84 nM
Substance: IL-2 with K43 replaced with AzK, pegylated with 10 kDa mPEG (from UniProt P60568 21-153) (ligand)

- Supplementary Table 1: αβγ EC50 (nM), DiscoverX PathHunter IL-2 receptor αβγ assay; row V69* [1]: 0.08 nM
- Supplementary Table 1: βγ EC50 (nM), DiscoverX PathHunter IL-2 receptor βγ assay; row V69* [2]: 9.99 nM
Substance: IL-2 with V69 replaced with AzK, pegylated with 30 kDa mPEG (from UniProt P60568 21-153) (ligand)

- Supplementary Table 1: αβγ EC50 (nM), DiscoverX PathHunter IL-2 receptor αβγ assay; row T41 [1]: 0.05 nM
- Supplementary Table 1: βγ EC50 (nM), DiscoverX PathHunter IL-2 receptor βγ assay; row T41 [2]: 6.37 nM
Substance: IL-2 with T41 replaced with AzK, pegylated with 10 kDa mPEG (from UniProt P60568 21-153) (ligand)

- potency (EC50) of pSTAT5 induction in Treg cells of human PBMC, PEG size study [3]: 5450 pg/mL
Substance: IL-2 P65 AzK (replacement of proline 65 with AzK, without PEG attachment) (from UniProt P60568 21-153) (ligand)

- Supplementary Table 1: βγ EC50 (nM), DiscoverX PathHunter IL-2 receptor βγ assay; row E62 [2]: 3 nM
Substance: IL-2 with E62 replaced with AzK, pegylated with 10 kDa mPEG (from UniProt P60568 21-153) (ligand)

- Supplementary Table 1: αβγ EC50 (nM), DiscoverX PathHunter IL-2 receptor αβγ assay; row E68* [1]: 0.09 nM
- Supplementary Table 1: βγ EC50 (nM), DiscoverX PathHunter IL-2 receptor βγ assay; row E68* [2]: 7.7 nM
Substance: IL-2 with E68 replaced with AzK, pegylated with 30 kDa mPEG (from UniProt P60568 21-153) (ligand)

- Supplementary Table 1: βγ EC50 (nM), DiscoverX PathHunter IL-2 receptor βγ assay; row K35 [2]: 6.75 nM
Substance: IL-2 with K35 replaced with AzK, pegylated with 10 kDa mPEG (from UniProt P60568 21-153) (ligand)

- Supplementary Table 1: αβγ EC50 (nM), DiscoverX PathHunter IL-2 receptor αβγ assay; row R38 [1]: 0.17 nM
- Supplementary Table 1: βγ EC50 (nM), DiscoverX PathHunter IL-2 receptor βγ assay; row R38 [2]: 4.16 nM
Substance: IL-2 with R38 replaced with AzK, pegylated with 10 kDa mPEG (from UniProt P60568 21-153) (ligand)

- Supplementary Table 1: αβγ EC50 (nM), DiscoverX PathHunter IL-2 receptor αβγ assay; row E62* [1]: 2.84 nM
- Supplementary Table 1: βγ EC50 (nM), DiscoverX PathHunter IL-2 receptor βγ assay; row E62* [2]: 7.46 nM
Substance: IL-2 with E62 replaced with AzK, pegylated with 30 kDa mPEG (from UniProt P60568 21-153) (ligand)

- Supplementary Table 1: αβγ EC50 (nM), DiscoverX PathHunter IL-2 receptor αβγ assay; row F42 [1]: 0.52 nM
- Supplementary Table 1: βγ EC50 (nM), DiscoverX PathHunter IL-2 receptor βγ assay; row F42 [2]: 6.09 nM
Substance: IL-2 with F42 replaced with AzK, pegylated with 10 kDa mPEG (from UniProt P60568 21-153) (ligand)

- Supplementary Table 1: αβγ EC50 (nM), DiscoverX PathHunter IL-2 receptor αβγ assay; row Y45 [1]: 0.11 nM
- Supplementary Table 1: βγ EC50 (nM), DiscoverX PathHunter IL-2 receptor βγ assay; row Y45 [2]: 9.06 nM
Substance: IL-2 with Y45 replaced with AzK, pegylated with 10 kDa mPEG (from UniProt P60568 21-153) (ligand)

Reference: paper PMC8352909
